Assay results reported in patent US20020045205A1, “Method for autoactivation of procaspase 8” (priority 1998, published 2002).
Each block holds one molecule with its values, some of them ahead of it.

Experiments:
[1] = Cleavage of chromogenic and fluorogenic caspase substrates; format: biochemical, human; settings: substrates Ac-DEVD-pNA, Ac-IETD-pNA, Ac-DEVD-AMC
Source text: Enzyme activity of caspase 8 preparations was monitored using the chromogenic substrates Ac-DEVD-pNA or Ac-IETD-pNA or the fluorogenic substrates Ac-DEVD-AMC or Ac-IETD-AMC. For the chromogenic substrates, kinetic release of para-nitroaniline (pNA) was followed at 405 nm using either a Lambda 6 spectrophotometer or in a microtitre plate format using a Molecular Devices Thermomax plate reader with 405 nm wavelength filter. Kinetic enzyme assays monitoring the release of 7-amino-4-methyl-coumarin from the fluorogenic substrates were conducted using a Molecular Devices fmax plate reader with Ex=355 nm and Em=460 nm.

[2] = substrate: CC(=O)N[C@@H](CC(=O)O)C(=O)N[C@@H](CCC(=O)O)C(=O)N[C@H](C(=O)N[C@@H](CC(=O)O)C(=O)Nc1ccc([N+](=O)[O-])cc1)C(C)C; test: Substrate Km in caspase 8 enzyme assay; format: biochemical, human; settings: other: 100 mM sodium phosphate/10 mM Tris/100 mM DTT, pH 7.50, 37° C., pH 7.5
Protocol: Unless otherwise indicated, all specific enzyme activity measurements described herein were made using the Ac-DEVD-pNA substrate. […] Initial rates were determined as follows: 100 μl of 1M DTT, 790 μl 100 mM sodium phosphate/10 mM Tris, pH 7.50, and 10 μl of caspase 8 sample solution (for protein concentrations near 0.5 mg/ml) were added to a quartz semi-micro cuvette.

activity against caspase substrates [1]: no measurable activity
B1: Concentrated, but unprocessed, protein: recombinant procaspase 8 polypeptide lacking the DED prodomain, with (His)6 tag, SEQ ID NO:1 (protein, listed as Homo sapiens)
chain: MRGSHHHHHHGSMTISDSPREQDSESQTLDKVYQMKSKPRGYCLIINNHNFAKAREKVPKLHSIRDRNGTHLDAGALTTTFEELHFEIKPHDDCTVEQIYEILKIYQLMDHSNMDCFICCILSHGDKGIIYGTDGQEAPIYELTSQFTGLKCPSLAGKPKVFFIQACQGDNYQKGIPVETDSEEQPYLEMDLSSPQTRYIPDEADFLLGMATVNNCVSYRNPAEGTWYIQSLCQSLRERCPRGDDILTILTEVNYEVSNKDDKKNMGKQMPQPTFTLRKKLVFPSD
modifications: (His)6 tag

B2: caspase 8 (Homo sapiens) (protein)
chain 1: SPREQDSESQTLDKVYQMKSKPRGYCLIINNHNFAKAREKVPKLHSIRDRNGTHLDAGALTTTFEELHFEIKPHDDCTVEQIYEILKIYQLMDHSNMDCFICCILSHGDKGIIYGTDGQEAPIYELTSQFTGLKCPSLAGKPKVFFIQACQGDNYQKGIPVETD
chain 2: LSSPQTRYIPDEADFLLGMATVNNCVSYRNPAEGTWYIQSLCQSLRERCPRGDDILTILTEVNYEVSNKDDKKNMGKQMPQPTFTLRKKLVFPSD
notes: the 19 kDa peptide (S ^18PREQD . . . IPVETD^181); the 11 kDa chain (L^192SSPQ . . . LVFPSD^286); (His)6 (MRGS(H)6 leader, 12-residue prosegment from pQE30) (N, cleaved yes); made in house; host or cells: E. coli M15 (pREP4), vector pQE30
Km [2]: 167 µM
